The values below come from patent US20070031832A1.

One assay has as its target anti-Der p 1 monoclonal antibody 2C7. As to the kind of experiment: T7-DELFIA, 50 µl phage lysate on 2C7-coated wells, time resolved fluorometry.
The molecule GDPNSASGTA (peptide, not shown: large carriers) [2c7pan9] had a TRF of 17000 TRF. For the molecule GDPNSSSVDKLGYWRVTESSNE (peptide, not shown: large carriers) [2c7pan42], the TRF turned out to be 64000 TRF. For GDPNSSTSPR (peptide, not shown: large carriers) [2c7pan8], the TRF was 1900 TRF. Turning to GDPRTHR (peptide, not shown: large carriers) [2c7pan26], the TRF stood at 8500 TRF.

As for GDPNSRGKSREYLS (peptide, not shown: large carriers) [2c7pan14], the TRF came out at 1800 TRF.

The next assay has the same target. As to the kind of experiment: T7-DELFIA, comparison phage on 2C7-coated wells, time resolved fluorometry.
For T7wt, the TRF worked out at 500 TRF.
